Consider ten substances from PMC4259887.

A word on the stoichiometry N: it is a count of units in the complex or per binding partner.

For experiment [1], the target named is E2s, protruding homodimer domain of HEV capsid protein (wild type) (Hepatitis E virus (HEV)) (UniProt Q81871). Kind of experiment: non-reducing SDS-PAGE; wild type E2s and its Ala mutants (expressed in E. coli) on non-reducing SDS-PAGE; dimer or monomer band.
Experiment [2] concerns the target E2s mutant Asn560Ala (Hepatitis E virus (HEV)) (UniProt Q81871). The experiment is described as above.
A further experiment has as its target monoclonal antibody 8C11. Kind of experiment: CLIA (chemiluminescent immunoassay). The note with it: rE2-coated microplate; 8C11-HRP only; parent: est. 1.0e7; read off a plot.
Experiment [3] deals with E2s mutant Ser527 to Ala (Hepatitis E virus (HEV)) (UniProt Q81871). Put plainly: non-reducing SDS-PAGE; wild type E2s and its Ala mutants (expressed in E. coli) on non-reducing SDS-PAGE; dimer or monomer band.
Experiment [4] deals with E2s mutant Gln531 to Ala (Hepatitis E virus (HEV)) (UniProt Q81871). The experiment is described as above.
The target in experiment [5] is E2s mutant Gln568 to Ala (Hepatitis E virus (HEV)) (UniProt Q81871). Described as above.
In experiment [6] the target is E2s mutant Thr489 to Ala (Hepatitis E virus (HEV)) (UniProt Q81871). The description is as above.
The target of experiment [7] is E2s mutant Pro604 to Ala (Hepatitis E virus (HEV)) (UniProt Q81871). Described as above.
Experiment [8] concerns the target E2s mutant Ile529Ala (Hepatitis E virus (HEV)) (UniProt Q81871). The experiment is described as above.

Turning to “E2s, protruding homodimer domain of HEV capsid protein (wild type) (from UniProt Q81871 455-603) (domain or fragment)”, the stoichiometry N in experiment [1] was found to be 2.
“E2s mutant Asn560Ala (from UniProt Q81871 455-603) (domain or fragment)” yielded a stoichiometry N in experiment [2] of 2.
“E2s, protruding homodimer domain of HEV capsid protein (wild type) (from UniProt Q81871) I529A”: the response with monoclonal antibody 8C11 came out at 9.7e+06 RLU/s.
Turning to “E2s, protruding homodimer domain of HEV capsid protein (wild type) (from UniProt Q81871) N560A”, in the experiment with monoclonal antibody 8C11, the response is 8.7e+06 RLU/s.
With “E2s mutant Ser527 to Ala (from UniProt Q81871 455-603) (domain or fragment)”, the stoichiometry N in [3] stood at 2.
In experiment [4], “E2s mutant Gln531 to Ala (from UniProt Q81871 455-603) (domain or fragment)” gave a stoichiometry N of 2.
With “E2s mutant Gln568 to Ala (from UniProt Q81871 455-603) (domain or fragment)”, in experiment [5], the stoichiometry N is 2.
Regarding “E2s mutant Thr489 to Ala (from UniProt Q81871 455-603) (domain or fragment)”, in [6], the stoichiometry N is 2.
Substance “E2s mutant Pro604 to Ala (from UniProt Q81871 455-603) (domain or fragment)” registered a stoichiometry N in experiment [7] of 2.
In experiment [8], “E2s mutant Ile529Ala (from UniProt Q81871 455-603) (domain or fragment)” came in with a stoichiometry N of 2.
